The series concerns the molecule itself. Description: cross-linking.

This note sets out measurements from PMC2566886 (Nucleic Acids Research, 2008).

Bounds are passed on as bounds.

One may read the stoichiometry N as the number of molecules, sites or subunits per partner or assembly.

B1: Xenopus Nudt16 protein (X29) (enzyme, Xenopus laevis)
chain: MAESRSPDRGAKEDKPRPRNISREESLQLEGYKHACHALLHAPSQAKLFDRVPIRRVLLMMMRFDGRLGFPGGFVDTRDISLEEGLKRELEEELGPALATVEVTEDDYRSSQVREHPQKCVTHFYIKELKLEEIERIEAEAVNAKDHGLEVMGLIRVPLYTLRDRVGGLPAFLCNNFIGNSKSQLLYALRSLKLLREDQIQEVLKASHRLQY
On to B1, for which the “stoichiometry N” value was at least 2.
